Tests used:
[1] = Insulin association state by SEC-MALS; assay type: physicochemical; conditions: for monomer / number average molecular weight (MW): zinc-free
Description: Excipient choice is important, because as in the case of Apidra (glulisine), the absence of zinc is not sufficient to result in an ultra-fast acting insulin formulation. To engineer an insulin formulation that promotes the monomer state, the effects of excipients on insulin association state under zinc-free conditions must be understood. Characterization by size exclusion chromatography with multiple angle light scattering (SEC-MALS) allows us to determine insulin molecular weight in formulation and estimate the fraction of hexamers, dimers and monomers under formulation conditions. […] To select for a mostly monomeric insulin formulation, we evaluated the effect of tonicity agents and preservatives on insulin association state.
Number-averaged molecular weight (MW) and dispersity (Ð=Mw/Mn) of formulations were obtained using size exclusion chromatography (SEC) carried out using a Dionex Ultimate 3000 instrument (including pump, autosampler, and column compartment) outfitted with a Dawn Heleos II Multi Angle Ligh Scattering detector, and a Optilab rEX refractive index detector. The column was a Superose 6 Increase 10/300 GL from GE healthcare. Data was analyzed using Astra 6.0 software.
Controls consisted of either (v) commercial Humalog formulation comprising glycerol (1.6%), meta-cresol (0.315%), dibasic sodium phosphate (0.188%), and zinc (0.00197%), or (vi) commercial Novolog formulation comprising glycerol (1.6%), meta-cresol (0.172%), phenol (0.15%), sodium chloride (0.058%), dibasic sodium phosphate (0.125%), and zinc (0.00196%). Insulin lispro and aspart were injected at a concentration of a minimum […] protein and a volume of 100 μL. A do/dc of 0.186 mL/g was used for all samples.
The molar fraction of monomeric, dimeric and hexameric insulin was determined by fitting experimentally derived number-averaged (Mn) and weight-averaged (Mw) molecular weights determined by SEC-MALS to Equation 1 and Equation 2, where m, d and h, respectively, represent the molar fractions of monomeric, dimeric and hexameric insulin while I represents the molecular weight of monomeric insulin (5831 g/mol). The solver was constrained so that m+d+h=1 while m, d and h remain between 0 and 1.

[2] = molecular target: N-terminal phenylalanine on insulin (Homo sapiens, UniProt P01308); assay: Host-guest binding of CB[7]-PEG to insulin
Procedure: Referring to FIGS. 1A and 1B, existing insulin formulations contain a mixture of hexamers, dimers and monomers, which, upon subcutaneous injection, dissociate and are absorbed at different rates, shown diagrammatically in FIG. 1A. Non-covalent PEGylation is enabled by the strong specific binding between CB[7]-PEG and the N-terminal phenylalanine on insulin (KD=0.5 μM). Under high concentrations in formulation insulin will be greater than 98% bound, but after dilution upon subcutaneous injection less than 1% of CB[7]-PEG will remain associated with insulin. This differential absorption results in the rapid onset but long duration of action of these formulations, as indicated in the activity curve in FIG. 1B. […] The formulations described herein are directed to this objective.

insulin aspart = insulin aspart (Homo sapiens, UniProt P01308, P52D); assay: Acridine orange dye displacement competitive binding assay; conditions: unmodified CB[7], AO displacement, one-site competitive binding model; read-out: binding affinity
Procedure: Unmodified CB[7] was purchased from Strem Chemicals and Acridine Orange (AO) was purchased from Sigma-Aldrich. Binding of CB[7] to aspart was assessed using the AO dye displacement assay, as previously described. Briefly, 6 μM of CB[7] and 8 μM AO were combined with 100 μL of aspart samples. Aspart samples were diluted to concentrations of 0, 0.01, 0.1, 0.3, 0.5, 1, 1.5, 2, 3, 4 μm in H2O. Samples were incubated overnight in light-free conditions, and fluorescent spectra were collected on an BioTek SynergyH1 microplate reader, exciting at 485 nm and collecting the resulting fluorescent spectra from 495 to 650 nm. The decay in the peak of AO fluorescent signal was fit to a one-site competitive binding model (GraphPad Prism, version 6.0), using the CB[7]·AO equilibrium constant reported previously (Keq=2×10^5 M^−1), to determine binding constants of unmodified CB[7] to insulin.

[3] = reported previously; cited from earlier work
[4] = phosphate buffer (pH=7.4), glycerol (2.6%)
[5] = phosphate buffer (pH=7.4), sodium chloride (0.9%)
[6] = phosphate buffer, glycerol (2.6%) and meta-cresol (0.315%)
[7] = phosphate buffer, glycerol (2.6%) and phenoxyethanol (0.85%)

Row | Substance | monomer [1, 4] | number average molecular weight (MW) [1, 4] | monomer [1, 5] | number average molecular weight (MW) [1, 5] | monomer [1, 6] | number average molecular weight (MW) [1, 6] | monomer [1, 7] | number average molecular weight (MW) [1, 7] | also measured
1 | insulin aspart | 91.4% | 7.4 kDa | 4.8% | 13 kDa | 71.0% | 9.4 kDa | 85.2% | 7.4 kDa | –
2 | insulin lispro | 89.2% | 7.6 kDa | 55.0% | 8.7 kDa | 56.7% | 9.0 kDa | 71.5% | 8.2 kDa | –
3 | Zinc free insulin: zinc free insulin in pure water | – | – | – | – | – | – | – | – | association state ([1]; in pure water): completely monomeric
4 | cucurbit[7]uril-poly(ethylene glycol) [CB[7]-PEG] | – | – | – | – | – | – | – | – | Kd [2]: 0.5 µM; CB[7]-PEG remaining associated with insulin ([2]; after dilution following subcutaneous administration): less than 1%; fraction bound (CB[7]-PEG/insulin complex) ([2]; typical (high) formulation concentrations): greater than 98%
5 | cucurbit[7]uril [CB[7]] | – | – | – | – | – | – | – | – | Kd (insulin aspart): 0.54 µM; Keq [3]: 200000 M⁻¹
